The source of these data is the Human Domainome abundance scans (Beltran et al. 2025).

± gives the uncertainty stated by the source.

B1: Homeobox protein SIX3, residues 212 to 262; numbered along this chain, O95343 (parent)
chain: CFKERTRSLLREWYLQDPYPNPSKKRELAQATGLTPTQVGNWFKNRRQRDR

The variants in this data set derive from B1. Nature of the data set: abundance fitness (aPCA) (normalised: wild type 0, dead -1); higher = more abundant; growth selection in yeast, the domain comes from the species named. Conditions: Homo sapiens.
As to CFKERTRSLLREWYLQDPYPNPSKKRELAQATGLTPTQVGNWFKNRRQMDR [R49M], the abundance fitness was -0.247 ± 0.058.

CFKERTRSLLREWYLQDPYPNPSKKRELAQATGLTPTQVGNWFKNRRQHDR [R49H]: the abundance fitness was -0.371 ± 0.22.

As to CFKERTRSLLREWYLQDPYPNPSKKRELAQATGLTPTQVGNWFKNRRQIDR [R49I], the abundance fitness is -0.216 ± 0.14.

Take CFKERTRSLLREWYLQDPYPNPSKKRELAQATGLTPTQVGNWFKNRRQLDR [R49L]: the abundance fitness was -0.388 ± 0.057.

Take CFKERTRSLLREWYLQDPYPNPSKKRELAQATGLTPTQVGNWFKNRRQDDR [R49D]: the abundance fitness is -0.033 ± 0.11.

For the variant CFKERTRSLLREWYLQDPYPNPSKKRELAQATGLTPTQVGNWFKNRRQEDR [R49E], the abundance fitness turned out to be 0 ± 0.042.

As for CFKERTRSLLREWYLQDPYPNPSKKRELAQATGLTPTQVGNWFKNRRQFDR [R49F], the abundance fitness was -0.373 ± 0.16.

For CFKERTRSLLREWYLQDPYPNPSKKRELAQATGLTPTQVGNWFKNRRQADR [R49A], the abundance fitness was -0.222 ± 0.079.

CFKERTRSLLREWYLQDPYPNPSKKRELAQATGLTPTQVGNWFKNRRQKDR [R49K]: the abundance fitness is 0.025 ± 0.073.

CFKERTRSLLREWYLQDPYPNPSKKRELAQATGLTPTQVGNWFKNRRQNDR [R49N]: the abundance fitness was -0.221 ± 0.19.

Consider CFKERTRSLLREWYLQDPYPNPSKKRELAQATGLTPTQVGNWFKNRRQGDR [R49G], for which the abundance fitness is -0.373 ± 0.051.

CFKERTRSLLREWYLQDPYPNPSKKRELAQATGLTPTQVGNWFKNRRQCDR [R49C]: the abundance fitness was -0.539 ± 0.1.

On to CFKERTRSLLREWYLQDPYPNPSKKRELAQATGLTPTQVGNWFKNVRQRDR [R46V], for which the abundance fitness is -0.635 ± 0.086.

In the case of CFKERTRSLLREWYLQDPYPNPSKKRELAQATGLTPTQVGNWFKNYRQRDR [R46Y], the abundance fitness is -0.504 ± 0.14.

As for CFKERTRSLLREWYLQDPYPNPSKKRELAQATGLTPTQVGNWFKNTRQRDR [R46T], the abundance fitness was -0.117 ± 0.073.

Take CFKERTRSLLREWYLQDPYPNPSKKRELAQATGLTPTQVGNWFKNSRQRDR [R46S]: the abundance fitness is -0.326 ± 0.083.

For the variant CFKERTRSLLREWYLQDPYPNPSKKRELAQATGLTPTQVGNWFKNWRQRDR [R46W], the abundance fitness is -0.817 ± 0.14.

On to CFKERTRSLLREWYLQDPYPNPSKKRELAQATGLTPTQVGNWFKNRRNRDR [Q48N], for which the abundance fitness was -0.166 ± 0.12.

As for CFKERTRSLLREWYLQDPYPNPSKKRELAQATGLTPTQVGNWFKNRRKRDR [Q48K], the abundance fitness was 0.177 ± 0.087.

Regarding CFKERTRSLLREWYLQDPYPNPSKKRELAQATGLTPTQVGNWFKNRRARDR [Q48A], the abundance fitness amounted to 0.028 ± 0.069.

For CFKERTRSLLREWYLQDPYPNPSKKRELAQATGLTPTQVGNWFKNRRDRDR [Q48D], the abundance fitness is -0.37 ± 0.061.

Take CFKERTRSLLREWYLQDPYPNPSKKRELAQATGLTPTQVGNWFKNRRPRDR [Q48P]: the abundance fitness was -0.799 ± 0.24.

On to CFKERTRSLLREWYLQDPYPNPSKKRELAQATGLTPTQVGNWFKNRRMRDR [Q48M], for which the abundance fitness is -0.431 ± 0.077.

For CFKERTRSLLREWYLQDPYPNPSKKRELAQATGLTPTQVGNWFKNRRRRDR [Q48R], the abundance fitness is 0.397 ± 0.049.

On to CFKERTRSLLREWYLQDPYPNPSKKRELAQATGLTPTQVGNWFKNRRERDR [Q48E], for which the abundance fitness is -0.267 ± 0.12.

Consider CFKERTRSLLREWYLQDPYPNPSKKRELAQATGLTPTQVGNWFKNRRLRDR [Q48L], for which the abundance fitness is -0.225 ± 0.057.

Turning to CFKERTRSLLREWYLQDPYPNPSKKRELAQATGLTPTQVGNWFKNRRYRDR [Q48Y], the abundance fitness is -0.055 ± 0.13.

In the case of CFKERTRSLLREWYLQDPYPNPSKKRELAQATGLTPTQVGNWFKNRRTRDR [Q48T], the abundance fitness was -0.242 ± 0.082.

Turning to CFKERTRSLLREWYLQDPYPNPSKKRELAQATGLTPTQVGNWFKNRRWRDR [Q48W], the abundance fitness is -0.117 ± 0.08.

For the variant CFKERTRSLLREWYLQDPYPNPSKKRELAQATGLTPTQVGNWFKNRRHRDR [Q48H], the abundance fitness was -0.042 ± 0.18.

Take CFKERTRSLLREWYLQDPYPNPSKKRELAQATGLTPTQVGNWFKNRRVRDR [Q48V]: the abundance fitness was -0.545 ± 0.086.

Regarding CFKERTRSLLREWYLQDPYPNPSKKRELAQATGLTPTQVGNWFKNRRFRDR [Q48F], the abundance fitness was -0.46 ± 0.18.

As to CFKERTRSLLREWYLQDPYPNPSKKRELAQATGLTPTQVGNWFKNRRSRDR [Q48S], the abundance fitness was -0.124 ± 0.051.

Take CFKERTRSLLREWYLQDPYPNPSKKRELAQATGLTPTQVGNWFKNRRCRDR [Q48C]: the abundance fitness was -0.147 ± 0.095.

In the case of CFKERTRSLLREWYLQDPYPNPSKKRELAQATGLTPTQVGNWFKNRQQRDR [R47Q], the abundance fitness was -0.473 ± 0.052.

CFKERTRSLLREWYLQDPYPNPSKKRELAQATGLTPTQVGNWFKNRCQRDR [R47C]: the abundance fitness was -0.804 ± 0.13.

Regarding CFKERTRSLLREWYLQDPYPNPSKKRELAQATGLTPTQVGNWFKNRPQRDR [R47P], the abundance fitness is -0.532 ± 0.074.

For the variant CFKERTRSLLREWYLQDPYPNPSKKRELAQATGLTPTQVGNWFKNRMQRDR [R47M], the abundance fitness is -0.975 ± 0.11.

For the variant CFKERTRSLLREWYLQDPYPNPSKKRELAQATGLTPTQVGNWFKNRWQRDR [R47W], the abundance fitness was -0.641 ± 0.14.

Take CFKERTRSLLREWYLQDPYPNPSKKRELAQATGLTPTQVGNWFKNRFQRDR [R47F]: the abundance fitness was -0.548 ± 0.14.

On to CFKERTRSLLREWYLQDPYPNPSKKRELAQATGLTPTQVGNWFKNRYQRDR [R47Y], for which the abundance fitness was -0.945 ± 0.12.

On to CFKERTRSLLREWYLQDPYPNPSKKRELAQATGLTPTQVGNWFKNRVQRDR [R47V], for which the abundance fitness is -0.586 ± 0.051.

For the variant CFKERTRSLLREWYLQDPYPNPSKKRELAQATGLTPTQVGNWFKNRIQRDR [R47I], the abundance fitness was -0.613 ± 0.093.

With CFKERTRSLLREWYLQDPYPNPSKKRELAQATGLTPTQVGNWFKNRNQRDR [R47N], the abundance fitness is -0.552 ± 0.11.

For CFKERTRSLLREWYLQDPYPNPSKKRELAQATGLTPTQVGNWFKNRDQRDR [R47D], the abundance fitness was -0.654 ± 0.17.

With CFKERTRSLLREWYLQDPYPNPSKKRELAQATGLTPTQVGNWFKNRTQRDR [R47T], the abundance fitness is -0.84 ± 0.056.

On to CFKERTRSLLREWYLQDPYPNPSKKRELAQATGLTPTQVGNWFKNRGQRDR [R47G], for which the abundance fitness was -0.898 ± 0.081.

For the variant CFKERTRSLLREWYLQDPYPNPSKKRELAQATGLTPTQVGNWFKNRSQRDR [R47S], the abundance fitness was -0.723 ± 0.064.

In the case of CFKERTRSLLREWYLQDPYPNPSKKRELAQATGLTPTQVGNWFKNRKQRDR [R47K], the abundance fitness was -0.591 ± 0.13.

As to CFKERTRSLLREWYLQDPYPNPSKKRELAQATGLTPTQVGNWFKNRAQRDR [R47A], the abundance fitness was -0.465 ± 0.059.

Consider CFKERTRSLLREWYLQDPYPNPSKKRELAQATGLTPTQVGNWFKNRHQRDR [R47H], for which the abundance fitness is -0.617 ± 0.092.
